Assay results published in paper PMC4822050, “Hemi-methylated DNA opens a closed conformation of UHRF1 to facilitate its histone recognition” (Nature Communications, 2016).

Molecular target: T1, UHRF1^Δ627–674 (human, UniProt Q96T88 1-793, Δ627–674)
T1 construct: also called spacer deletion mutant
T1 sequence (looked up): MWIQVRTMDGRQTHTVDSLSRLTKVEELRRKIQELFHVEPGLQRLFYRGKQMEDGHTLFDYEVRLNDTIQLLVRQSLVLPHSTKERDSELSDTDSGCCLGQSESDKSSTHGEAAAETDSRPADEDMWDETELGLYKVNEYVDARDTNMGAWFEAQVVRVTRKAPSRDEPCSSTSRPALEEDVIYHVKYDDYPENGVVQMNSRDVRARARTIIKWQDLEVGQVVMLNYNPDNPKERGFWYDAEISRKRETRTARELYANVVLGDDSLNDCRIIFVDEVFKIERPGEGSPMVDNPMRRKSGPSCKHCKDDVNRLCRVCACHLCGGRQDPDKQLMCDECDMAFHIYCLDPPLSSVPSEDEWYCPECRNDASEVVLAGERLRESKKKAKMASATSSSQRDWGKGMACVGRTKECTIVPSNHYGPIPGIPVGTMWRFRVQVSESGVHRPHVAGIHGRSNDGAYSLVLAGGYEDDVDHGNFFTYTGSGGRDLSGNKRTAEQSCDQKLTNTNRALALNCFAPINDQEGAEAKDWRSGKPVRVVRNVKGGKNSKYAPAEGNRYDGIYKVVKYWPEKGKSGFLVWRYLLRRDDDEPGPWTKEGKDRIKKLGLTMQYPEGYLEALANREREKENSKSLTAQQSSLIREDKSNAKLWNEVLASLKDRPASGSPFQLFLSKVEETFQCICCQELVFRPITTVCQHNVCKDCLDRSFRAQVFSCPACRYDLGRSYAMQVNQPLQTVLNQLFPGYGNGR
Assay: ITC; 0.05 mM protein in the cell, 0.5 mM protein or peptide in the syringe, iTC200, 18 °C, 10 mM HEPES pH 8.0, 100 mM NaCl
Conditions: both partners purified

fold increase in binding affinity against full-length UHRF1: 4 fold
B1: H3K9me3 peptide (1–17) (peptide, UniProt P68431 2-18, looked up)
peptide: ARTKQTARKSTGGKAPR
modifications: trimethyl-lysine at K9
notes: histone H3, residues 1–17
